Legend:
[1] = target: T1, snRNP200 (endogenous, from THP-1 cells) (human, UniProt O75643 1-2136); test: immunoprecipitation from THP-1 membrane lysate, Western blot with mouse-anti-human snRNP200
T1 construct: also called U5-snRNP
Experimental: FIG. 20A. THP-1 membrane lysate was incubated with AT12-023 and AT13-031, with the influenza-specific antibody AT10-002 or with marker alone.
THP-1 cells were lysed and precleared with an irrelevant antibody (in-house generated RSV antibody D25) and beads to remove non specific binding proteins. Precleared lysate was then incubated with bead-labeled AML-specific antibodies or with the influenza specific antibody AT10-002 as a negative control (3 hrs at 4° C.). Antibody-incubated lysates were washed five times, bound proteins were eluted from the THP-1 lysate and then run on an SDS-PAGE gel. Proteins were blotted and stained with Ponseau S to reveal total protein. The blot was blocked with BSA and incubated with mouse-anti-snRNP200 (Millipore, clone 3B6.1) or Rabbit-anti-HMGB1 (Abcam) for Western blot analysis. Intracelllar staining for snRNP200 was performed after fixing and permeabilizing THP-1 cells with methanol (Sigma) and permeabilization buffer containing triton X-100 (Sigma), EDTA (Gibco) and BSA (Roche), followed by incubation with rabbit-anti-human snRNP200 antibody (Sigma) overnight at 4° C.

snRNP200-flag construct = target: T2, snRNP200-flag construct (UniProt O75643 1-2136, limits assumed); test: capture ELISA: antibody coated, snRNP200-flag lysate (3 ug/ml) captured, anti-flag HRP detection
T2 construct: mature; Used as lysate at 3 ug/ml, not purified; also called full-length snRNP200 with an N-terminal FLAG tag; not shown: N-terminal FLAG tag
T2 sequence (O75643 whole entry): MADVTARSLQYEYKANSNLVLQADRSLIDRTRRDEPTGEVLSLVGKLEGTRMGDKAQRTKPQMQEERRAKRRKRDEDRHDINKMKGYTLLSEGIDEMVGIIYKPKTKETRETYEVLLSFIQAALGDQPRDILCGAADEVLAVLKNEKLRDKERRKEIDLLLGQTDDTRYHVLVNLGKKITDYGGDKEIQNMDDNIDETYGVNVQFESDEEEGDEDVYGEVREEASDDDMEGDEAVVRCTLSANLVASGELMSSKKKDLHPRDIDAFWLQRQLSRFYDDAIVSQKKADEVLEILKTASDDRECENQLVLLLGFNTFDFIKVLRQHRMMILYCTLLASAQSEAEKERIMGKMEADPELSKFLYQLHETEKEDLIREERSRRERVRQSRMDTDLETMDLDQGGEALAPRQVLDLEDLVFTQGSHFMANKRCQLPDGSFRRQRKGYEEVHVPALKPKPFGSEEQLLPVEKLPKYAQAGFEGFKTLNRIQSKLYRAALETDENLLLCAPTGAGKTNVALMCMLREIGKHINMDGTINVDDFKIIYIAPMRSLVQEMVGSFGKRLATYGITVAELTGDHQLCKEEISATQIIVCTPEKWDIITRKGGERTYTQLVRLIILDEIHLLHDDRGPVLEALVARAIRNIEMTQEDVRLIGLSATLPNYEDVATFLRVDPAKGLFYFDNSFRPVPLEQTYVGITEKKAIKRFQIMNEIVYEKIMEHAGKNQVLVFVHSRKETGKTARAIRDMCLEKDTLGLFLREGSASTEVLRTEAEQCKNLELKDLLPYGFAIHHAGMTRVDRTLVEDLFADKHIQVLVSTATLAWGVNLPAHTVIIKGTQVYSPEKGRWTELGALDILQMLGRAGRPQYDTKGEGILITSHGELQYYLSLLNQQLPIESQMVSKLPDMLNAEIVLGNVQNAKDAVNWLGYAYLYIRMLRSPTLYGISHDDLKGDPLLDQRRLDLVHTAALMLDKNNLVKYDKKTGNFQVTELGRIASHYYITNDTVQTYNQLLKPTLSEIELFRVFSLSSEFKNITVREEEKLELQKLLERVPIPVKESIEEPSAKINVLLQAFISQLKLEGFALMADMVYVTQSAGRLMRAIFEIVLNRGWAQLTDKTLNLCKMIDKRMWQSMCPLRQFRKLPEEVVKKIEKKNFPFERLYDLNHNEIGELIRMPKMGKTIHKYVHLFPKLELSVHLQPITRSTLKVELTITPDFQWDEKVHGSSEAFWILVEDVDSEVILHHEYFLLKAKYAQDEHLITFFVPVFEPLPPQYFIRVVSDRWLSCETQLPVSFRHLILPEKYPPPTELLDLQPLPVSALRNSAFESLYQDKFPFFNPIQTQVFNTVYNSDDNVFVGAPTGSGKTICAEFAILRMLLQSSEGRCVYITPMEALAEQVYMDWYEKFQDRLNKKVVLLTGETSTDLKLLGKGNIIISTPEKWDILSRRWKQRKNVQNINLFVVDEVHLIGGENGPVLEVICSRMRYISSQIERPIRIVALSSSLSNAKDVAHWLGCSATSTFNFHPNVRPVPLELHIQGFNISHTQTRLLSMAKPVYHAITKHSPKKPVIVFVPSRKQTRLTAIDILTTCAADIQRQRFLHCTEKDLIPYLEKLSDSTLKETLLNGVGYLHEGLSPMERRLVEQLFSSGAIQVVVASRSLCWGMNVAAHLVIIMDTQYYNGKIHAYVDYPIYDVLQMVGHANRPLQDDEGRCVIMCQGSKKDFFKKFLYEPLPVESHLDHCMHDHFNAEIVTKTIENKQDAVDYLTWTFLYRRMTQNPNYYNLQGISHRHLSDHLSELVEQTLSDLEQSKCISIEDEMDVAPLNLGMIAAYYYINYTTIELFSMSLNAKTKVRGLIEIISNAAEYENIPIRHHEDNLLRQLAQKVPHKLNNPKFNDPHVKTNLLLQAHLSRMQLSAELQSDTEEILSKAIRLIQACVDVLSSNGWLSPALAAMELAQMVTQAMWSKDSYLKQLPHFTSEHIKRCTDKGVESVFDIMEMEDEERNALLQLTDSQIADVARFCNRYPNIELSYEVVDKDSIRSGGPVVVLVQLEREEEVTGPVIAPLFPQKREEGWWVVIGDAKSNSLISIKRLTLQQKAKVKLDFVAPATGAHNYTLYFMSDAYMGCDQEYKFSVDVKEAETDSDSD
Experimental: FIG. 20B. AML specific antibodies AT12-019, AT12-023, AT13-031 and AT13-037 or commercially available snRNP200-specific antibodies snRNP200 453 and snRNP200 454 were coated on an ELISA plate, incubated with a snRNP200-flag construct for capturing and with anti-flag HRP for detection.
HEK 293T cells were transfected with an expression vector containing the full-length open reading frame of snRNP200 with an N-terminal FLAG tag. At 2 days after transfection cells were harvested and lysed in lysis buffer containing protease inhibitors. This lysate was cleared and protein concentration was measured. AML specific antibodies AT12-019, AT12-023, AT13-031 and AT13-037 or commercially available snRNP200 specific antibodies (Bethyl labs) were then coated on an ELISA plate. The lysate was added at a concentration of 3 μg/ml for capturing. After extensive washing, captured snRNP200-flag was detected with a monoclonal mouse anti-flag HRP antibody (Sigma-Aldrich, clone M2).

T1 sequence (O75643 whole entry): as above

B1: AT12-023 (antibody, V domains shown)
VH: QVQLQQWGAGLLKPSETLSLTCAVYGGSFSGYYWSWIRQPPGKGLEWIGEINHSGSTNYNPSLKSRVTISVDTSKNQFSLKLSSVTAADTAVYYCARGRSTSPLDYYYYYMDVWAKGTTVTVSS
VL: SSELTQDPAVSVALGQTVRITCQGDFLRSYYASWYQQKPGQAPVLVIFGKNKRPSGIPDRFSGSSSGNTASLTITGAQAEDEADYYCNSRDRSGNHLVFGGGTKLTVL
notes: Human antibody from AML patient donor 59; also called antibody AT12-023
binding result [1]: binds

B2: AT12-019 (antibody, IgG1, V domains shown)
VH: EVHLLESGGGLVQPGGSLRLSCAASGFTFSSYAMSWVRQAPGKGLEWVSTIRASGGSTSYADSVKGRFTISRDNSQSRLYLQMNSLTAEDTAVYYCAKSPAMIRGVRGGDYFDYWGQGTLVTVSS
VL: AIRLTQSPSSVSASTGDRVTITCRASQAFSSYLVWYQQKPGKAPNLLIYATSTLQGGVPSRFSGSGSGTDFTLTISNLQSEDFATYYCQQYYSYPPTFGQGTKLEIK
notes: Human antibody from AML patient donor 59; also called antibody AT12-019
binding result (snRNP200-flag construct): no binding

Reference: patent US20200239593A1 (AIMM THERAPEUTICS B V, published 2020)
